Molecular target: VP1(289A)-Flag (enterovirus A71 (C4))
Assay: co-IP

“Vimentin (VIM) (from UniProt P08670 1-466) (natural protein)” gave a fold VIM pulled down, against VP1(289T)-Flag of 1.6 fold.

From publication PMC6563288
